Source: US20130323248A1 (SORRENTO THERAPEUTICS, published 2013)
Each block holds one binder with its values, some of them ahead of it.

Target: T1, human DLL-4 expressed on the surface of CHO-K1 cells (CHO-DLL-4 cells) (human, UniProt Q9NR61 27-685)
T1 construct: whole, on cells; also called cell surface expressed DLL-4; cellular human DLL-4
Assay: flow cytometry (HTFC) on CHO-K1 cells stably expressing DLL-4
Procedure: Cells stably expressing DLL-4 were incubated with 1 μg/ml of anti-DLL-4 antibodies as indicated. The binding was analyzed by flow cytometry (HTFC, Intellicyt).
This example illustrates in vitro data for cell binding as part of an initial screen for several disclosed antibodies. CHO-K1 cells stably expressing DLL-4 (CHO-DLL-4 cells) were lifted in enzyme-free Dissociation Buffer and transferred to V-Bottom 96 well-plates (100,000 cells/well). Cells were incubated with anti-DLL-4 Antibodies in FACS buffer (PBS+2% FBS)+NaN₃ on ice for 45 min. After 2 washes in FACS buffer, a 1:1000 dilution of Phycoerythrin conjugated anti-Human IgG (γ-chain specific) was added and incubated for 30 min. Following a final wash, fluorescence intensity was measured on an Intellicyt High Throughput Flow Cytometer (HTFC). Data were analyzed using Graphpad Prism software using non-linear regression fit. Data points are shown as the median fluorescence intensity (MFI) of positively labeled cells +/− Standard Error. EC₅₀ values are reported as the concentration of antibody to achieve 50% of maximal DLL-4 antibodies binding to DLL-4 expressing cells.

binding result: binds
B1: anti-DLL-4 antibody G6 (antibody, V domains shown)
VH: EVQLVESGGSLVQPGGSLRLSCAASGFTFSNGWMTWLRQAPGKGLEWVATIKPDGSDTAYVESVKGRFTISRDNAKNLLYLQMDSLRGDDTAVYFCARDLAYNAFDIWGQGTMVTVSS
VL: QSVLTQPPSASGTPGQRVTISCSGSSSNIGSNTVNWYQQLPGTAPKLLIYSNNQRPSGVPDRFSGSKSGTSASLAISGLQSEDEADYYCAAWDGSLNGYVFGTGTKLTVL
notes: Fully human antibody of an IgG class

binding result: binds
B2: anti-DLL-4 antibody C3 (antibody, V domains shown)
VH: QVQLVQSGSELKKPGASVKVSCKASGYTFTSYYMHWVRQVPGQGLEWMGIINPSGGSTSYAQKFQGRVTMTRDTSTSTVYMELSSLRSEDTAVYYCATDYYDSSGYVDFDYWGQGTLVTVSS
VL: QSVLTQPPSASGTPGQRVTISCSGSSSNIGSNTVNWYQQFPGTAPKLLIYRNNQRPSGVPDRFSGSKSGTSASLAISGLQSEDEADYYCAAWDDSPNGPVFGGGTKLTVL
notes: it was detected with anti-human IgG (gamma-chain specific)
